This data set deals with the molecule itself. The data set is described as follows: crystal structure.

B1: SNX1 (301–522) (domain or fragment)
chain: KMNESDIWFEEKLQEVECEEQRLRKLHAVVETLVNHRKELALNTAQFAKSLAMLGSSEDNTALSRALSQLAEVEEKIEQLHQEQANNDFFLLAELLSDYIRLLAIVRAAFDQRMKTWQRWQDAQATLQKKREAEARLLWANKPDKLQQAKDEILEWESRVTQYERDFERISTVVRKEVIRFEKEKSKDFKNHVIKYLETLLYSQQQLAKYWEAFLPEAKAIS
In the case of B1, the binding result is listed as “binds”.

The values above are taken from publication PMC3512392 (The EMBO Journal, 2012).
